The supplement of paper PMC5998384

Legend:
HeLa Kyoto [1] = test: solubility in G1/S (NP-40 vs SDS abundance) (log2 ratio); higher = more soluble; details: cell cycle stage: G1/S
HeLa Kyoto [2] = test: solubility change mitosis vs G1/S (difference of NP-40 vs SDS log2 ratios) (log2 ratio difference); higher = more soluble in mitosis
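Throughout, for solubility change mitosis vs G1/S (difference of NP-40 vs SDS log2 ratios): synchronized HeLa Kyoto cells (double thymidine block for G1/S, nocodazole release for mitosis), protein amounts in NP-40 versus SDS lysates quantified by mass spectrometry, three biological replicates.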
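Throughout, for solubility in G1/S (NP-40 vs SDS abundance): HeLa Kyoto cells arrested at G1/S by double thymidine block, proteins quantified by TMT10plex mass spectrometry in mild NP-40 versus SDS extracts, three biological replicates.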

How did the “solubility in G1/S (log2)” value (HeLa Kyoto [1]) turn out when “MDTKHFLPLDFSTQVNSSLTSPTGRGSMAAPSLHPSLGPGIGSPGQLHSPISTLSSPINGMGPPFSVISSPMGPHSMSVPTTPTLGFSTGSPQLSSPMNPVSSSEDIKPPLGLNGVLKVPAHPSGNMASFTKHICAICGDRSSGKHYGVYSCEGCKGFFKRTVRKDLTYTCRDNKDCLIDKRQRNRCQYCRYQKCLAMGMKREAVQEERQRGKDRNENEVESTSSANEDMPVERILEAELAVEPKTETYVEANMGLNPSSPNDPVTNICQAADKQLFTLVEWAKRIPHFSELPLDDQVILLRAGWNELLIASFSHRSIAVKDGILLATGLHVHRNSAHSAGVGAIFDRVLTELVSKMRDMQMDKTELGCLRAIVLFNPDSKGLSNPAEVEALREKVYASLEAYCKHKYPEQPGRFAKLLLRLPALRSIGLKCLEHLFFFKLIGDTPIDTFLMEMLEAPHQMT [RXRA]” was run?
Its value is 0.173.

And the “solubility change mitosis (log2)” value (HeLa Kyoto [2])?
Its value is -0.151.

How did the “solubility in G1/S (log2)” value (HeLa Kyoto [1]) turn out when “MCDQQQIQCRLPLQQCCVKGPSFCSSQSPFAQSQVVVQAPCEMQIVDCPASCPVQVCQVSDQAPCQSQTTQVKCQSKTKQVKGQAQCQSKTTQVKGQAASQSQTSSVQSQAPCQSEVSYVQCEASQPVQTCFVECAPVCYTETCYVECPVQNYVPCPAPQPVQMYRGRPAVCQPQGRFSTQCQYQGSYSSCGPQFQSRATCNNYTPQFQLRPSYSSCFPQYRSRTSFSPCVPQCQTQGSYGSFTEQHRSRSTSRCLPPPRRLQLFPRSCSPPRRFEPCSSSYLPLRPSEGFPNYCTPPRRSEPIYNSRCPRRPISSCSQRRGPKCRIEISSPCCPRQVPPQRCPVEIPPIRRRSQSCGPQPSWGASCPELRPHVEPRPLPSFCPPRRLDQCPESPLQRCPPPAPRPRLRPEPCISLEPRPRPLPRQLSEPCLYPEPLPALRPTPRPVPLPRPGQCEIPEPRPCLQPCEHPEPCPRPEPIPLPAPCPSPEPCRETWRSPSPCWGPNPVPYPGDLGCHESSPHRLDTEAPYCGPSSYNQGQESGAGCGPGDVFPERRGQDGHGDQGNAFAGVKGEAKSAYF [KPRP]” was run?
Its value is -1.06.

What about the “solubility change mitosis (log2)” value (HeLa Kyoto [2]) of the same sequence?
The value was 1.12.

Which “solubility in G1/S (log2)” value (HeLa Kyoto [1]) does the source give for “MTHTRRKSLPMLSSGLTGRREPLQMEDSNMEQGVEGVEPGMPESPGHLTGRRKNYPLRKRPLVPEKPKACKVLLTRLENVAGPRSADEADELPPDLPKPPSPAPSSEDPGLAQPRKRRLASLNAEALNNLLLEREDTSSLAGTRRSRAGDPHRSRDRDRATGGWSSSKKRPRLGDLGGGSRDLSPEPAPDEGPRRDGDPAPKRLASLNAAAFLKLSQERELPLRLPRAHAEVDGRSTEPPAPKAPRPKWPKVNGKNYPKAWQGASSGEAAGPPGWQGCPDEPWPSATPCGPSVQPSHQPLSKALESPLGLRPHLPLLMGGQAALKPEPGRPGEESPAPKQELHQPSFPTPQLSPLPMPGNPADYNGLCVGPELTALGSFYLYCGQEGLQCGGYSPCPMLPEGKLSPVAAPHEEGLLLAPSSVPSGTPFQHPPWGSSRYCSSEDTGVNGYSICGVLPLSVTHAGTTCGGCPYKMPFAAEGCRSLGQLEFPLPEAGHPASPAHPLLGCPVPSVPPAAEPVPHLQTPTSEPQTVARACPQSAKPPSGSKSGLRTGSSCRHTARSKAARRPSHPKQPRVQRPRPRRRRRRRTNGWVPVGAACEKAVYVLDEPEPAIRKSYQAVERHGETIRVRDTVLLKSGPRKTSTPYVAKISALWENPESGELMMSLLWYYRPEHLQGGRSPSMHEPLQNEVFASRHQDQNSVACIEEKCYVLTFAEYCRFCAMAKRRGEGLPSRKTALVPPSADYSTPPHRTVPEDTDPELVFLCRHVYDFRHGRILKNPQ [BAHD1]” here?
The value was -0.799.

What about the “solubility change mitosis (log2)” value (HeLa Kyoto [2]) of the same sequence?
Its value is 0.738.

Which results are given for “MELPAVGEHVFAVESIEKKRIRKGRVEYLVKWRGWSPKYNTWEPEENILDPRLLIAFQNRERQEQLMGYRKRGPKPKPLVVQVPTFARRSNVLTGLQDSSTDNRAKLDLGAQGKGQGHQYELNSKKHHQYQPHSKERAGKPPPPGKSGKYYYQLNSKKHHPYQPDPKMYDLQYQGGHKEAPSPTCPDLGAKSHPPDKWAQGAGAKGYLGAVKPLAGAAGAPGKGSEKGPPNGMMPAPKEAVTGNGIGGKMKIVKNKNKNGRIVIVMSKYMENGMQAVKIKSGEVAEGEARSPSHKKRAADERHPPADRTFKKAAGAEEKKVEAPPKRREEEVSGVSDPQPQDAGSRKLSPTKEAFGEQPLQLTTKPDLLAWDPARNTHPPSHHPHPHPHHHHHHHHHHHHAVGLNLSHVRKRCLSETHGEREPCKKRLTARSISTPTCLGGSPAAERPADLPPAAALPQPEVILLDSDLDEPIDLRCVKTRSEAGEPPSSLQVKPETPASAAVAVAAAAAPTTTAEKPPAEAQDEPAESLSEFKPFFGNIIITDVTANCLTVTFKEYVTV [CBX4]”?
solubility in G1/S (log2) (HeLa Kyoto [1]): -0.386; solubility change mitosis (log2) (HeLa Kyoto [2]): 0.583

Which “solubility in G1/S (log2)” value (HeLa Kyoto [1]) does the source give for “MNYPGRGSPRSPEHNGRGGGGGAWELGSDARPAFGGGVCCFEHLPGGDPDDGDVPLALLRGEPGLHLAPGTDDHNHHLALDPCLSDENYDFSSAESGSSLRYYSEGESGGGGSSLSLHPPQQPPLVPTNSGGGGATGGSPGERKRTRLGGPAARHRYEVVTELGPEEVRWFYKEDKKTWKPFIGYDSLRIELAFRTLLQTTGARPQGGDRDGDHVCSPTGPASSSGEDDDEDRACGFCQSTTGHEPEMVELVNIEPVCVRGGLYEVDVTQGECYPVYWNQADKIPVMRGQWFIDGTWQPLEEEESNLIEQEHLNCFRGQQMQENFDIEVSKSIDGKDAVHSFKLSRNHVDWHSVDEVYLYSDATTSKIARTVTQKLGFSKASSSGTRLHRGYVEEATLEDKPSQTTHIVFVVHGIGQKMDQGRIIKNTAMMREAARKIEERHFSNHATHVEFLPVEWRSKLTLDGDTVDSITPDKVRGLRDMLNSSAMDIMYYTSPLYRDELVKGLQQELNRLYSLFCSRNPDFEEKGGKVSIVSHSLGCVITYDIMTGWNPVRLYEQLLQKEEELPDERWMSYEERHLLDELYITKRRLKEIEERLHGLKASSMTQTPALKFKVENFFCMGSPLAVFLALRGIRPGNTGSQDHILPREICNRLLNIFHPTDPVAYRLEPLILKHYSNISPVQIHWYNTSNPLPYEHMKPSFLNPAKEPTSVSENEGISTIPSPVTSPVLSRRHYGESITNIGKASILGAASIGKGLGGMLFSRFGRSSTTQSSETSKDSMEDEKKPVASPSATTVGTQTLPHSSSGFLDSAYFRLQESFFNLPQLLFPENVMQNKDNALVELDHRIDFELREGLVESRYWSAVTSHTAYWSSLDVALFLLTFMYKHEHDDDAKPNLDPI [DDHD1]” here?
The value was -0.175.

And the “solubility change mitosis (log2)” value (HeLa Kyoto [2])?
The value was 0.134.

Which “solubility in G1/S (log2)” value (HeLa Kyoto [1]) does the source give for “MSETDHIASTSSDKNVGKTPELKEDSCNLFSGNESSKLENESKLLSLNTDKTLCQPNEHNNRIEAQENYIPDHGGGEDSCAKTDTGSENSEQIANFPSGNFAKHISKTNETEQKVTQILVELRSSTFPESANEKTYSESPYDTDCTKKFISKIKSVSASEDLLEEIESELLSTEFAEHRVPNGMNKGEHALVLFEKCVQDKYLQQEHIIKKLIKENKKHQELFVDICSEKDNLREELKKRTETEKQHMNTIKQLESRIEELNKEVKASRDQLIAQDVTAKNAVQQLHKEMAQRMEQANKKCEEARQEKEAMVMKYVRGEKESLDLRKEKETLEKKLRDANKELEKNTNKIKQLSQEKGRLHQLYETKEGETTRLIREIDKLKEDINSHVIKVKWAQNKLKAEMDSHKETKDKLKETTTKLTQAKEEADQIRKNCQDMIKTYQESEEIKSNELDAKLRVTKGELEKQMQEKSDQLEMHHAKIKELEDLKRTFKEGMDELRTLRTKVKCLEDERLRTEDELSKYKEIINRQKAEIQNLLDKVKTADQLQEQLQRGKQEIENLKEEVESLNSLINDLQKDIEGSRKRESELLLFTERLTSKNAQLQSESNSLQSQFDKVSCSESQLQSQCEQMKQTNINLESRLLKEEELRKEEVQTLQAELACRQTEVKALSTQVEELKDELVTQRRKHASSIKDLTKQLQQARRKLDQVESGSYDKEVSSMGSRSSSSGSLNARSSAEDRSPENTGSSVAVDNFPQVDKAMLIERIVRLQKAHARKNEKIEFMEDHIKQLVEEIRKKTKIIQSYILREESGTLSSEASDFNKVHLSRRGGIMASLYTSHPADNGLTLELSLEINRKLQAVLEDTLLKNITLKENLQTLGTEIERLIKHQHELEQRTKKT [CCDC186]” here?
The value was 0.232.

And the “solubility change mitosis (log2)” value (HeLa Kyoto [2])?
Its value is 0.000436.

What does the source list for “MSYRRELEKYRDLDEDEILGALTEEELRTLENELDELDPDNALLPAGLRQKDQTTKAPTGPFKREELLDHLEKQAKEFKDREDLVPYTGEKRGKVWVPKQKPLDPVLESVTLEPELEEALANASDAELCDIAAILGMHTLMSNQQYYQALSSSSIMNKEGLNSVIKPTQYKPVPDEEPNSTDVEETLERIKNNDPKLEEVNLNNIRNIPIPTLKAYAEALKENSYVKKFSIVGTRSNDPVAYALAEMLKENKVLKTLNVESNFISGAGILRLVEALPYNTSLVEMKIDNQSQPLGNKVEMEIVSMLEKNATLLKFGYHFTQQGPRLRASNAMMNNNDLVRKRRLADLTGPIIPKCRSGV [TMOD1]”?
solubility in G1/S (log2) (HeLa Kyoto [1]): 0.122; solubility change mitosis (log2) (HeLa Kyoto [2]): 0.357
